Where a chain is given by its changes, count along the chain named.
B1: RA082 (nucleic acid)
DNA: GCGCGTCCTGGATTCGAGAATACCAGCATCGTCTTGATGCCCTTGGAAGTCTCGGAAACGCGTACATCCAGCTGACGAGTCCCAAATAGGACGAAACGCGC
modifications: expressed or natural sequence
B2: RA075 (nucleic acid)
DNA: GCGCGTCCTGGATTCGCGGAAACGCGTACATCCAGCTGACGAGTCCCAAATAGGACGAAAGTGATACCAGCATCGTCTTGATGCCCTTGGCAGCACTACGCGC
modifications: expressed or natural sequence
B3: RA089 (nucleic acid)
DNA: GCGCGTCCTGGATTCGCGGAAACGCGTACATCCAGCTGACGAGTCCCAAATAGGACCGGAATACCAGCATCGTCTTGATGCCCTTGGAAGTCCGGAAACGCGC
modifications: expressed or natural sequence
B4: RA079 (nucleic acid)
DNA: GCGCGTCCTGGATTCGCGGAAACGCGTACATCCAGCGAGAATACCAGCATCGTCTTGATGCCCTTGGAAGTCTCGCTGACGAGTCCCAAATAGGACGAAACGCGC
modifications: expressed or natural sequence
B5: RA081 (nucleic acid)
DNA: GCGCGTCCTGGATTCGCGGAAACGCGTACATCCAGCTGACGAGTCCCAAGGAATACCAGCATCGTCTTGATGCCCTTGGAAGTCCATAGGACGAAACGCGC
modifications: expressed or natural sequence
B6: RA086 (nucleic acid)
DNA: GCGCGTCCTGGATTCGCGGAAACGCGGAATACCAGCATCGTCTTGATGCCCTTGGAAGTCCGCGTACATCCAGCTGACGAGTCCCAAATAGGACGAAACGCGC
modifications: expressed or natural sequence
B7: RA087 (nucleic acid)
DNA: GCGCGTCCTGGATTCGCGGAAACGCGTACATCCAGCTGACGAGCGAGAATACCAGCATCGTCTTGATGCCCTTGGAAGTCTCGTCCCAAATAGGACGAAACGCGC
modifications: expressed or natural sequence
B8: RA080 (nucleic acid)
DNA: GCGCGTCCTGGATTCGGAGAATACCAGCATCGTCTTGATGCCCTTGGAAGTCTCCGGAAACGCGTACATCCAGCTGACGAGTCCCAAATAGGACGAAACGCGC
modifications: expressed or natural sequence
B9: RA076 (nucleic acid)
DNA: GCGCGTCCTGGATTCGCGGGAGAATACCAGCATCGTCTTGATGCCCTTGGAAGTCTCAAACGCGTACATCCAGCTGACGAGTCCCAAATAGGACGAAACGCGC
modifications: expressed or natural sequence
B10: RA008 (nucleic acid)
DNA: GCGCGTCCTGGATTCGCGGAAACGGAATACCAGCATCGTCTTGATGCCCTTGGAAGTCCGCGCGTACATCCAGCTGACGAGTCCCAAATAGGACGAAACGCGC
modifications: expressed or natural sequence
B11: RA007 (nucleic acid)
DNA: GCGCGTCCTGGATTCGCGGAAACGCGTACATCCAGCTGACGAGTCCCAAATAGGACGAAACGCGAGAATACCAGCATCGTCTTGATGCCCTTGGAAGTCTCGCGC
modifications: expressed or natural sequence
B12: RA077 (nucleic acid)
DNA: GCGCGTCCAGTGATACCAGCATCGTCTTGATGCCCTTGGCAGCACTTGGATTCGCGGAAACGCGTACATCCAGCTGACGAGTCCCAAATAGGACGAAACGCGC
modifications: expressed or natural sequence
B13: RA085 (nucleic acid)
DNA: GCGCGTCCTGGATTCGCGGAAACGCGTACATCCAGAATACCAGCATCGTCTTGATGCCCTTGGAAGTCTAGCTGACGAGTCCCAAATAGGACGAAACGCGC
modifications: expressed or natural sequence
B14: RA078 (nucleic acid)
DNA: GCGCGTCCTGGATTCGCGGAAACGCGTACATCCAGCTGACGAGTCCCAAATAGGACGAAACGCCGAGAATACCAGCATCGTCTTGATGCCCTTGGAAGTCTCGGC
modifications: expressed or natural sequence
B15: RA091 (nucleic acid)
DNA: GGAATACCAGCATCGTCTTGATGCCCTTGGAAGTCCGCGCGTCCTGGATTCGCGGAAACGCGTACATCCAGCTGACGAGTCCCAAATAGGACGAAACGCGC
modifications: expressed or natural sequence
B16: RA083 (nucleic acid)
DNA: GCGCGTCCGGAATACCAGCATCGTCTTGATGCCCTTGGAAGTCCTGGATTCGCGGAAACGCGTACATCCAGCTGACGAGTCCCAAATAGGACGAAACGCGC
modifications: expressed or natural sequence
B17: RA088 (nucleic acid)
DNA: GCGCGTCCTGGATTCGCGGAAACGCGTACATCCCGAGAATACCAGCATCGTCTTGATGCCCTTGGAAGTCTCGAGCTGACGAGTCCCAAATAGGACGAAACGCGC
modifications: expressed or natural sequence
B18: RA092 (nucleic acid)
DNA: GCGCGTCCTGGATTCGCGGAAACGCGTACATCCAGCTGACGAGTCCCAAATAGGACCGGAATACCAGCATCGTCTTGATGCCCTTGGAAGTCCGGCGAAACGCGC
modifications: expressed or natural sequence
B19: RA084 (nucleic acid)
DNA: GCGCGTCCTGGAGAGAATACCAGCATCGTCTTGATGCCCTTGGAAGTCTCTTCGCGGAAACGCGTACATCCAGCTGACGAGTCCCAAATAGGACGAAACGCGC
modifications: expressed or natural sequence
B20: RA090 (nucleic acid)
DNA: B19 DNA with G13A, A14G, G15T, A16G, A44C, T47C, C48A, T49C, C50T
modifications: expressed or natural sequence

Test system: Renilla luciferase RNA
Assay: Barcoded aptazyme variant library screen: un-cleaved Renilla luciferase RNA by barcode read counts, HEK293-T cells
Format: cell-based
Settings: un-cleaved Renilla luciferase RNA, HEK293-T cells cultured with 1 mM theophylline (ON) over without theophylline (OFF); barcode read counts, triplicate
Summary of the method: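 Barcode sequencing of cDNA versus DNA, normalized per aptazyme, gave the un-cleaved Renilla luciferase RNA fraction and fold-change with versus without theophylline (triplicates). Library: T3H48 ribozyme with one of seven theophylline aptamer variants inserted at each position, placed in the Renilla 3′ UTR of a dual-luciferase vector.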

Molecule | Fold change in RNA expression between the ON state and the OFF state [fold]
B1 | 1.7
B2 | 1.8
B3 | 1.7
B4 | 1.8
B5 | 1.7
B6 | 1.7
B7 | 1.7
B8 | 1.7
B9 | 1.8
B10 | 4.2
B11 | 4.5
B12 | 1.8
B13 | 1.7
B14 | 1.8
B15 | 1.6
B16 | 1.7
B17 | 1.7
B18 | 1.6
B19 | 1.7
B20 | 1.7
